Data taken from patent US7087420B1, “Microbial β-glucuronidase genes, gene products and uses thereof” (Cambia, priority 1997, dated 2006).

Substrate: O=C(O)[C@H]1O[C@@H](Oc2ccc([N+](=O)[O-])cc2)[C@H](O)[C@@H](O)[C@@H]1O
Experiment: Kinetics of pNPG hydrolysis by E. coli GUS (spectrophotometric p-nitrophenol release)
Assay type: biochemical, Escherichia coli
Settings: other: E. coli GUS, substrate pNPG, 37° C., pH 7.0
Procedure: One such substrate is p-nitrophenyl β-D-glucuronide (pNPG), which when cleaved by GUS releases the chromophore p-nitrophenol. At a pH greater than its pKa (approximately 7.15), the ionized chromophore absorbs light at 400–420 nm, therefore appears in the yellow range of visible light. Briefly, reactions are performed in 50 mM Na3PO4 pH 7.0, 10 mM 2-ME, 1 mM EDTA, 1 mM pNPG, and 0.1% Triton® X-100 at 37° C. The reactions are terminated by the addition of 0.4 ml of 2-amino-2-methylpropanediol, and absorbance measured at 415 nm against a substrate blank. Under these conditions, the molar extinction coefficient of p-nitrophenol is assumed to be 14,000: One unit is defined as the amount of enzyme that produces 1 nmole of product/min at 37° C.
Turnover number is calculated as nmoles of pNPG converted to p-nitrophenol per min per μg of purified protein.

B1: E. coli β-glucuronidase (E. coli GUS, GUS^Eco), wild type, SEQ ID NO: 23 (Escherichia coli K-12) (protein)
chain: MLRPVETPTREIKKLDGLWAFSLDRENCGIDQRWWESALQESRAIAVPGSFNDQFADADIRNYAGNVWYQREVFIPKGWAGQRIVLRFDAVTHYGKVWVNNQEVMEHQGGYTPFEADVTPYVIAGKSVRITVCVNNELNWQTIPPGMVITDENGKKKQSYFHDFFNYAGIHRSVMLYTTPNTWVDDITVVTHVAQDCNHASVDWQVVANGDVSVELRDADQQVVATGQGTSGTLQVVNPHLWQPGEGYLYELCVTAKSQTECDIYPLRVGIRSVAVKGEQFLINHKPFYFTGFGRHEDADLRGKGFDNVLMVHDHALMDWIGANSYRTSHYPYAEEMLDWADEHGIVVIDETAAVGFNLSLGIGFEAGNKPKELYSEEAVNGETQQAHLQAIKELIARDKNHPSVVMWSIANEPDTRPQGAREYFAPLAEATRKLDPTRPITCVNVMFCDAHTDTISDLFDVLCLNRYYGWYVQSGDLETAEKVLEKELLAWQEKLHQPIIITEYGVDTLAGLHSMYTDMWSEEYQCAWLDMYHRVFDRVSAVVGEQVWNFADFATSQGILRVGGNKKGIFTRDRKPKSAAFLLQKRWTGMNFGEKPQQGGKQ
notes: pNPG substrate; functional homotetramer
Q: Which Km does the source give for B1 here?
A: 120 μM pNPG μM

Q: And the Vmax?
A: 80 nmol/min/µg
